# Measurements: article doi:10.1101/2021.08.02.454737
# Changes are numbered by the printed parent chain.
# T1: UPF1 RM-3F (RNA mutant, UPF1R RM-3F) (human, UniProt Q92900-2 1-1118, N524A;K547A;R843A)
# T1 sequence: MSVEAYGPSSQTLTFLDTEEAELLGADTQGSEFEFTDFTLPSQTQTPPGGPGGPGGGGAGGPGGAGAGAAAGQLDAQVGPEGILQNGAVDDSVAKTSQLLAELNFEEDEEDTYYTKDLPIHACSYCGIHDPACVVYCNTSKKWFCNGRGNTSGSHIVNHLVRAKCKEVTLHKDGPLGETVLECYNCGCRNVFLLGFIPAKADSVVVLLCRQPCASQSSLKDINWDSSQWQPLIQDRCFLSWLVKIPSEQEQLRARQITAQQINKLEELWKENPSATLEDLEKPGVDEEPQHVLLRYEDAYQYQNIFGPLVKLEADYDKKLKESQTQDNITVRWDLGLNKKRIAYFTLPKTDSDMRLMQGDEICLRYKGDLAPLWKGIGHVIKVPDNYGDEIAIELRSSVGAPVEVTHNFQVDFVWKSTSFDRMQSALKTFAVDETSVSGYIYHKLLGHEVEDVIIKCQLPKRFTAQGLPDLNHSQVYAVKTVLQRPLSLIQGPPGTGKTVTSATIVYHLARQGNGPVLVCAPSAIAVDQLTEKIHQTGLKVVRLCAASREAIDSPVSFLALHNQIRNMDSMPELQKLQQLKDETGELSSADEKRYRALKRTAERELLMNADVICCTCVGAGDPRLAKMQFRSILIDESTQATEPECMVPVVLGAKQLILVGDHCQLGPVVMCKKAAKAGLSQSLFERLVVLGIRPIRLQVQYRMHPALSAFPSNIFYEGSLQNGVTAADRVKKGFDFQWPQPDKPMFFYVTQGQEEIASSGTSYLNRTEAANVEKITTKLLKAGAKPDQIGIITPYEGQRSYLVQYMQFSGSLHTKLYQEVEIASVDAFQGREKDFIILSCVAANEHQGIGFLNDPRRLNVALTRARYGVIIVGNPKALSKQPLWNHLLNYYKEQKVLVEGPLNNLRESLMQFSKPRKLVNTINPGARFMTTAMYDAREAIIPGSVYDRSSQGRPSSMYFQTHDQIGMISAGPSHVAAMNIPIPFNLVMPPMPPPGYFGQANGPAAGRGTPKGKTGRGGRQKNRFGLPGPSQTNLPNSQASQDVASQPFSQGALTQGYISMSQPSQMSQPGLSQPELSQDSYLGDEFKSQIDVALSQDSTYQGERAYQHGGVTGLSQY
# T2: UPF1-3F (wt, UPF1R-3F) (human, UniProt Q92900-2 1-1118)
# T2 sequence: T1 sequence with A524N, A547K, A843R
# Assays:
# [1] = target: T1, UPF1 RM-3F (RNA mutant, UPF1R RM-3F); test: MST
# UPF1-3F (wt, UPF1R-3F) = target: T2, UPF1-3F (wt, UPF1R-3F); test: MST
binder,measurement,setting,value
UUUUUUUUUUUUUUUUUUUUUUUUUUUUUU (ssRNA) [U30 RNA],binding result,[1],no binding
same,Kd,"UPF1-3F (wt, UPF1R-3F)",25.3 ± 4.43 nM
